In experiment [1] the target is T1, GARS, endogenous in H929 multiple myeloma cells (human, UniProt P41250 37-739, limits assumed).
T1 construct: Native protein pulled down from H929 lysates; also called Glycyl-tRNA synthetase; GlyRS
T1 sequence: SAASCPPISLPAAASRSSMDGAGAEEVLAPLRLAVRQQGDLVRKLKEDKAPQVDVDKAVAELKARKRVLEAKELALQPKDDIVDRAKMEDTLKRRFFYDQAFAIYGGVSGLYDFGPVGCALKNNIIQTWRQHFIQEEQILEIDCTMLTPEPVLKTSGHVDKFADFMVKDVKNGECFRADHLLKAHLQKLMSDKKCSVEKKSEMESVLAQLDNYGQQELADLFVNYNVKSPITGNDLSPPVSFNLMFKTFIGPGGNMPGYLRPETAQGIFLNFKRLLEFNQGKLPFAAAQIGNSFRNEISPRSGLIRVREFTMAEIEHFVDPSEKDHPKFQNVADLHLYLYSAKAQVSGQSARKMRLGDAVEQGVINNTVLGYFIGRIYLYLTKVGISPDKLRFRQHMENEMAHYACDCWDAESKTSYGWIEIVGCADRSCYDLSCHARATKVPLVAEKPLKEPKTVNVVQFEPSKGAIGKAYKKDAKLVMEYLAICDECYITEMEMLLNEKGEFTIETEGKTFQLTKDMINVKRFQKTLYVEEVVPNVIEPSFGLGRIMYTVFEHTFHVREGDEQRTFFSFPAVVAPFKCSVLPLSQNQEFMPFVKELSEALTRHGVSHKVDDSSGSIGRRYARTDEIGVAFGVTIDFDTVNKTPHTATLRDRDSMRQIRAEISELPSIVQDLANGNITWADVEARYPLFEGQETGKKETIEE
The experiment can be described thus: flow cytometry, H929 + vehicle; None 513; surface target GARS putative. In general terms: In flow cytometry, cells or beads pass a laser one at a time.

Experiment [2] deals with T1, GARS, endogenous in H929 multiple …. The experiment can be described thus: flow cytometry, H929 + GARS siRNA (siRNA against the putative target); None 452.
Experiment [3] has the same target. Put plainly: flow cytometry, H929 + PTPRG siRNA; None 2.13; surface target GARS putative.
For experiment [4] the target is unchanged. The experiment can be described thus: flow cytometry, H929 + NT Green siRNA; None 416; surface target GARS putative.
The target is the same in experiment [5]. Put plainly: flow cytometry, H929 + ICAM1 siRNA; None 455; surface target GARS putative.
For experiment [6] the target is unchanged. Put plainly: flow cytometry, H929 + GARS siRNA (siRNA against the putative target); None 0.2.
Experiment [7] has the same target. Put plainly: flow cytometry, H929 + PTPRG siRNA; None 490; surface target GARS putative.
The next experiment has as its target T2, PTP4A3.
T2 construct: also called His-PTP4A3 (R&D Systems)
Put plainly: ELISA on coated protein. The method, then: Recombinant purified ECDs (50-150 ng) of each putative target protein were coated, incubated with 150 ng of the indicated primary antibody, and binding was detected using a peroxidase-conjugated anti-human Fab secondary antibody. Heatmap represents averages of technical triplicates. (8B) Target validation via siRNA knockdown. H929 cells were transfected with siRNA pools targeting the putative antibody targets ICAM1, CADM1, and PTPRG. Cells were then subjected to cognate IgG binding analysis via flow cytometry. (NT, non-targeting siRNA).
ELISA ELISA was conducted as described previously. Briefly, 50-150 ng of antigen was coated overnight in half-area 96-well plates at 4° C., blocked with 3% BSA at 37° C. for 1 h, and 150 ng of chimeric rabbit/human IgG1 was added, incubating for 2 h at 37° C. […] After incubating at 37° C. for 15 min-1 h (depending on intensity of controls), data were acquired using a SpectraMax M5 plate reader (Molecular Devices).
Background: ELISA stands for enzyme-linked immunosorbent assay.

T2 sequence (chain, as listed by the source limits assumed): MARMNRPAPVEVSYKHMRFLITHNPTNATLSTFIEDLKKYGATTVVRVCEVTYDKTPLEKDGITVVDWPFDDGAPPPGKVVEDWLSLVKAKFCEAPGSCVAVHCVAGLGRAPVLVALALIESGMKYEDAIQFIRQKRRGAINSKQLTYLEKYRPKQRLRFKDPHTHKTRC

B1: HW-16 chimeric rabbit-human IgG1 LA/LA/PG (antibody, V domains shown)
VH: QSLEESGGRLVTPGTPLTLTCTASGFSLSSYAMSWVRQAPGKGLEWIGTMPTGGGTYYASWAKGRFTISKTSTTVDLQITSPTTEDTATYFCAKHWNIWGPGTLVTISS
VL: DIVLTQTPSSTSTAVGDTVTINCRASQSIGRNLAWFQQKPGQPPKLLIYRASNLASGVPSRFKGSGSRTQFTLTISGVQREDAATYYCLGSYSSSDTAFGGGTELEILR
notes: Fc-silenced (L234A/L235A/P329G) IgG1, kappa; Alexa Fluor 647-labeled in single-step flow cytometry; Cluster C-45
Consider B1, for which the “mAb binding (MFI)” value in experiment [1] was found to be 61100; in experiment [2] it was 155000; in experiment [4] it was 59500; in experiment [5] it was 48900; in experiment [7], 41600. Also, the entries for the “Cells stained (%)” value in experiment [3] and in experiment [6] were 98.2% and 99.1%, respectively.

B2: HW-8 chimeric rabbit-human IgG1 LA/LA/PG (antibody, V domains shown)
VH: QSLEESGGRLVTPGTPLTLTCTVSGFSLSSYAMSWVRQAPGKGLEWIGAISTGGSTTYASWAKGRFTISKTSSTTVDLKMTSLTTEDTATYFCVRHFRLWGPGTLVTISS
VL: QVLTQTPSSVSAAVGGTVTIKCQASQSIGSALAWFQQKPGQRPKLLIYRASNLASGVPSRFKGSGSGTEFALTISGVQREDAATYYCLGGAAAVWAFGAGTNVEIKR
notes: as for B1
Take B2: the “mAb binding (MFI)” value is 16700 in experiment [1]; 109000 in experiment [2]; 15500 in experiment [4]; 11400 in experiment [5]; 13600 in experiment [7]. Moreover, the “Cells stained (%)” value in experiment [3] came to 84.3%; in experiment [6] it was 99%. The binding result with PTP4A3 was “no binding (tested: 150 ng IgG1 per well)”.

B3: HW-81 chimeric rabbit-human IgG1 LA/LA/PG (antibody, V domains shown)
VH: QKQLVESGGGLVTPGGTLTLTCTVSGFSLSSNGVSWVRQAPGKGLEYIGLIRSIGSTYYATWAKGRFTISKTSTTVDLKITSPTTEDTATYFCARGGYRNGFKLWGPGTLVTVSS
VL: QPVLTQSPSVSAALGASAKLTCTLSSAHKTYYIEWYQQQHPGKAPRYLMQLQSDGSYTKGTGVPDRFSGSSSGADRYLIISSVQAEDEADYICGVIDSAVYVFGGGTQLTVTG
notes: Fc-silenced (L234A/L235A/P329G) IgG1, lambda; Alexa Fluor 647-labeled in single-step flow cytometry; Cluster C-45
On to B3, for which the “mAb binding (MFI)” value in experiment [1] worked out at 682000; in experiment [2], 216000; in experiment [4] it was 693000; in experiment [5], 640000; in experiment [7] it was 630000. Also, the “Cells stained (%)” value worked out at 100% in experiment [3] and 99.4% in experiment [6].

B4: HW-56 chimeric rabbit-human IgG1 LA/LA/PG (antibody, V domains shown)
VH: QSVKESEGGLFKPTDTLTLTCTASGFTVSTNAVTWVRQAPGNGLEYIGTIGRSGSAYFASWAKRRSTLTRDINLNTVTLKMTSLTAADTATYFCVRGSPGYRTAISIWGPGTLVTISS
VL: AVMTQTPSSTSAAVEGTVTINCQASQSISNRLSWFQQKPGQPPKLLIYQASTLASGVPSRFKGSGSGTEFTLTISGVQREDAATYYCLGSYSSSDASFGGGTKLEIKR
notes: as for B1
As for B4, the “mAb binding (MFI)” value in experiment [1] came to 481000; in experiment [2], 413000; in experiment [4], 499000; in experiment [5], 497000; in experiment [7], 479000. The “Cells stained (%)” value in experiment [3] stood at 99.8%; in experiment [6], 99.9%.

B5: HW-28 chimeric rabbit-human IgG1 LA/LA/PG (antibody, V domains shown)
VH: QKQLVESGGRLVTPGTPLTLTCTASGFSLSSNAMSWVRQAPGEGLQWIGTISSGGSTYYASWAKGRFTISKTSTTVTLKMTSLTTEDTATYFCARGADLHRLWGPGTLVTVSS
VL: SFVLTQPASVQVNLGQTVSLTCTGKPLSRSFASWYQQKPGQAPVLVIYRDTSRPSGVPDRFSGSSSGNTATLTISGAQAGDEADYYCATSDGSGSSYQYVFGGGTQLTVTG
notes: as for B3
As to B5, the “mAb binding (MFI)” value in experiment [1] amounted to 44400; in experiment [2], 170000; in experiment [4] it was 50700; in experiment [5], 33900; in experiment [7], 41900. The “Cells stained (%)” value came out at 98.6% in experiment [3] and 98.3% in experiment [6].

B6: HW-45 chimeric rabbit-human IgG1 LA/LA/PG (antibody, V domains shown)
VH: QKQLVESGGRLVTPGTPLTLTCTVSGFSLSSYAMGWFRQAPGKGLEWIGIINSYGSTYYASWAKGRFTISKTSTTVDLKITSPTTEDTATYFCGRRIGSARFDPWGPGTLVTVSS
VL: SFVLTQPASVQVNLGQTVSLTCTADTLSRSYASWYQQKPGQAPVLLIYRDTRRPSGVPDRFSGSSSGNTATLTISGAQAGDEADYYCATSDGSGSSYRLVFGGGTQLTVTG
notes: Fc-silenced (L234A/L235A/P329G) IgG1, lambda; Alexa Fluor 647-labeled in single-step flow cytometry; Prototype of cluster C-45
With B6, the “mAb binding (MFI)” value amounted to 25400 in experiment [1]; 76900 in experiment [2]; 29500 in experiment [4]; 20800 in experiment [5]; 23200 in experiment [7]. The entries for the “Cells stained (%)” value in experiment [3] and in experiment [6] were 97.3% and 98.5%, respectively.

For the origin of these results see patent US20260049134A1 (UNIVERSITY OF FLORIDA RESEARCH FOUNDATION, published 2026).
